One data set relates to RAJI cells. As to the kind of experiment: JNG assay, co-culture with RAJI cells. To be noted: JNG cells expressing construct, co-culture with Raji. It counts as cell-based. In short, it runs like this:
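Jurkat-NFAT-GFP (JNG) cells stably expressing SAR constructs via lentiviral transduction and puromycin/blasticidin selection were cocultured with target cells at E:T ~1:2 for ~4–18 h. NFAT-driven GFP was measured by FACS versus parental JNG cells; scores +/- to 5+ denote ~5–50% GFP-positive cells.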

The next data set has as its system LoVo. As to the kind of experiment: JNG NFAT-GFP assay, co-culture with LoVo cells. Format: cell-based.
For data set [1], the system named is JNG cells expressing the constructs.
The next data set relates to Nalm6 cells. As to the kind of experiment: JNG assay, co-culture with Nalm6 cells. To be noted: co-culture with Nalm6. Format: cell-based. In short, it runs like this: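 Scoring uses % GFP+ reporter cells above the parental control, where +/-, +, 2+, 3+, 4+ and 5+ correspond to about 5, 10, 20, 30, 40 and 50%. Effectors were SAR-expressing Jurkat NFAT-GFP cells cocultured with targets (E:T ~1:2, ~4–18 h).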

B1: 22007 (protein)
chain: MALPVTALLLPLALLLHAARPQLQLQESGPGLVKPSETLSLTCTVSGDSISSGDYYWGWIRQPPGKGLEWIGHIYYSGVTYYNPSLKSRVTISVDTSRNQFSLKLSSVTAADTAVYYCTREDSSNWRSRGQGTLVTVSSLEDLKNVFPPEVAVFEPSEAEISHTQKATLVCLATGFYPDHVELSWWVNGKEVHSGVCTDPQPLKEQPALNDSRYCLSSRLRVSATFWQNPRNHFRCQVQFYGLSENDEWTQDRAKPVTQIVSAEAWGRADCGFTSESYQQGVLSATILYEILLGKATLYAVLVSALVLMAMVKRKDSRGRAKRSGSGATNFSLLKQAGDVEENPGPTSMDWIWRILFLVGAATGAHSFEVQLVESGGGLVQPGGSLRLSCAASGFNIKDTCIGWVRRAPGKEEELVADICPYKGSTRYADSVKGRFTISADTSKNTAYLQMNSLRAEDTAVYYCAIVSARDGYYNYWGQGTTVTVSSTRIQNPDPAVYQLRDSKSSDKSVCLFTDFDSQTNVSQSKDSDVYITDKCVLDMRSMDFKSNSAVAWSNKSDFACANAFNNSIIPEDTFFPSPESSCDVKLVEKSFETDTNLNFQNLSVIGFRILLLKVAGFNLLMTLRLWSSRAKRSGSGVKQTLNFDLLKLAGDVESNPGPSRGHMTEYKPTVRLATRDDVPRAVRTLAAAFADYPATRHTVDPDRHIERVTELQELFLTRVGLDIGKVWVADDGAAVAVWTTPESVEAGAVFAEIGPRMAELSGSRLAAQQQMEGLLAPHRPKEPAWFLATVGVSPDHQGKGLGSAVVLPGVEAAERAGVPAFLETSAPRNLPFYERLGFTVTADVEVPEGPRTWCMTRKPGA
As for B1, in the data set with RAJI cells, the “NFAT-GFP ASSAY: Raji” value is “+/- (refer to approximately 5%, 10%, 20%, 30%, 40% and 50% GFP positive cells)”. Besides, the “NFAT-GFP ASSAY: LoVo” value in the data set on LoVo is “+/- (refer to approximately 5%, 10%, 20%, 30%, 40% and 50% GFP positive cells)”.

B2: SEQ ID NO: 22247: Herceptin mimotag tagged SAR (protein)
chain: MALPVTALLLPLALLLHAARPACPQLGPYELWELSHGTGAVVRGAEFDIQMTQSPSSLSASVGDRVTITCKASDHINNWLAWYQQKPGQAPKLLIYGATTLETGVPSRFSGSGSGTDYTLTISSLQPEDFATYYCQQSWNTPWTFGQGTKLEIKRLEDLKNVFPPEVAVFEPSKAEIAHTQKATLVCLATGFYPDHVELSWWVNGKEVHSGVCTDPQPLKEQPALNDSRYCLSSRLRVSATFWQNPRNHFRCQVQFYGLSENDEWTQDRAKPVTQIVSAEAWGRADCGITSASYHQGVLSATILYEILLGKATLYAVLVSALVLMAMVKRKDSRGRAKRSGSGATNFSLLKQAGDVEENPGPTSATMDWIWRILFLVGAATGAHSGPQVQLQESGGGLAQAGGSLRLSCAASGRTFSMGWFRQAPGKEREFVAAITYSGGSPYYASSVRGRFTISRDNAKNTVYLQMNSLKPEDTAVYYCAANPTYGSDWNAENWGQGTQVTVSSGSGGGGSGGGGSGGGGSFEQVQLQQPGAELVKPGASVKMSCKASGYAFSSYWINWMKQKPGQGLEWIGQIYPGDGDTNYNGKFKGRATLTADTSSSTAYMQLSSLTSEDSAVYFCARSITTVVGCAMDYWGQGTSVTVSSTRIQNPDPAVYQLRDSKSSDKSVCLFTDFDSQTNVSQSKDSDVYITDKCVLDMRSMDFKSNSAVAWSNKSDFACANAFNNSIIPEDTFFPSSDVPCDVKLVEKSFETDTNLNFQNLSVIGFRILLLKVAGFNLLMTLRLWSSRAKRSGSGVKQTLNFDLLKLAGDVESNPGPSRGHMTEYKPTVRLATRDDVPRAVRTLAAAFADYPATRHTVDPDRHIERVTELQELFLTRVGLDIGKVWVADDGAAVAVWTTPESVEAGAVFAEIGPRMAELSGSRLAAQQQMEGLLAPHRPKEPAWFLATVGVSPDHQGKGLGSAVVLPGVEAAERAGVPAFLETSAPRNLPFYERLGFTVTADVEVPEGPRTWCMTRKPGA
modifications: Herceptin mimotag
For B2, the “cytotoxicity when exposed to antibody” value in data set [1] is listed as “showed cytotoxicity”.

B3: SEQ ID NO: 22248: Herceptin mimotag tagged SAR (protein)
chain: MALPVTALLLPLALLLHAARPDIQMTQSPSSLSASVGDRVTITCKASDHINNWLAWYQQKPGQAPKLLIYGATTLETGVPSRFSGSGSGTDYTLTISSLQPEDFATYYCQQSWNTPWTFGQGTKLEIKRLEDLKNVFPPEVAVFEPSEAEISHTQKATLVCLATGFYPDHVELSWWVNGKEVHSGVCTDPQPLKEQPALNDSRYCLSSRLRVSATFWQNPRNHFRCQVQFYGLSENDEWTQDRAKPVTQIVSAEAWGRADCGFTSESYQQGVLSATILYEILLGKATLYAVLVSALVLMAMVKRKDSRGRAKRSGSGATNFSLLKQAGDVEENPGPTSATMDWIWRILFLVGAATGAHSGPQLGPYELWELSHGSGPLGIAGIFEQVQLQQPGAELVKPGASVKMSCKASGYAFSSYWINWMKQKPGQGLEWIGQIYPGDGDTNYNGKFKGRATLTADTSSSTAYMQLSSLTSEDSAVYFCARSITTVVGCAMDYWGQGTSVTVSSTRIQNPDPAVYQLRDSKSSDKSVCLFTDFDSQTNVSQSKDSDVYITDKCVLDMRSMDFKSNSAVAWSNKSDFACANAFNNSIIPEDTFFPSPESSCDVKLVEKSFETDTNLNFQNLSVIGFRILLLKVAGFNLLMTLRLWSSRAKRSGSGVKQTLNFDLLKLAGDVESNPGPSRGHMTEYKPTVRLATRDDVPRAVRTLAAAFADYPATRHTVDPDRHIERVTELQELFLTRVGLDIGKVWVADDGAAVAVWTTPESVEAGAVFAEIGPRMAELSGSRLAAQQQMEGLLAPHRPKEPAWFLATVGVSPDHQGKGLGSAVVLPGVEAAERAGVPAFLETSAPRNLPFYERLGFTVTADVEVPEGPRTWCMTRKPGA
modifications: Herceptin mimotag
Turning to B3, the “cytotoxicity when exposed to antibody” value in data set [1] is reported as “showed cytotoxicity”.

B4: 22093 (protein)
chain: MALPVTALLLPLALLLHAARPEVQLVESGGGLVQPGGSLRLSCAASGFNIKDTCIGWVRRAPGKEEELVAKICKYSGHTRYADSVKGRFTISADTSKNTAYLQMNSLRAEDTAVYYCAAVSVRDGHYNYWGQGTTVTVSSLEGKPIPNPLLGLDSTGSGEDLKNVFPPEVAVFEPSKAEIAHTQKATLVCLATGFYPDHVELSWWVNGKEVHSGVCTDPQPLKEQPALNDSRYCLSSRLRVSATFWQNPRNHFRCQVQFYGLSENDEWTQDRAKPVTQIVSAEAWGRADCGITSASYHQGVLSATILYEILLGKATLYAVLVSALVLMAMVKRKDSRGRAKRSGSGATNFSLLKQAGDVEENPGPTSTMALPVTALLLPLALLLHAARPDIQMTQSPSSLSASVGDRVTITCKASDHINNWLAWYQQKPGQAPKLLIYGATTLETGVPSRFSGSGSGTDYTLTISSLQPEDFATYYCQQSWNTPWTFGQGTKLEIKRGGGGSGGGGSGGGGSQVQLQQPGAELVKPGASVKMSCKASGYAFSSYWINWMKQKPGQGLEWIGQIYPGDGDTNYNGKFKGRATLTADTSSSTAYMQLSSLTSEDSAVYFCARSITTVVGCAMDYWGQGTSVTVSSTREQKLISEEDGSGIQNPDPAVYQLRDSKSSDKSVCLFTDFDSQTNVSQSKDSDVYITDKCVLDMRSMDFKSNSAVAWSNKSDFACANAFNNSIIPEDTFFPSSDVPCDVKLVEKSFETDTNLNFQNLSVIGFRILLLKVAGFNLLMTLRLWSSRAKRSGSGVKQTLNFDLLKLAGDVESNPGPSRGHMTEYKPTVRLATRDDVPRAVRTLAAAFADYPATRHTVDPDRHIERVTELQELFLTRVGLDIGKVWVADDGAAVAVWTTPESVEAGAVFAEIGPRMAELSGSRLAAQQQMEGLLAPHRPKEPAWFLATVGVSPDHQGKGLGSAVVLPGVEAAERAGVPAFLETSAPRNLPFYERLGFTVTADVEVPEGPRTWCMTRKPGA
On to B4, for which the “NFAT-GFP ASSAY: Raji” value in the data set with RAJI cells was 2+ (refer to approximately 5%, 10%, 20%, 30%, 40% and 50% GFP positive cells). In the data set on Nalm6 cells, the “NFAT-GFP ASSAY: Nalm6” value was “+ (refer to approximately 5%, 10%, 20%, 30%, 40% and 50% GFP positive cells)”. In addition, the “NFAT-GFP ASSAY: LoVo” value in the data set on LoVo was “+/- (refer to approximately 5%, 10%, 20%, 30%, 40% and 50% GFP positive cells)”.

For the origin of these results see patent US20230212319A1, “NOVEL ANTIGEN BINDING DOMAINS AND SYNTHETIC ANTIGEN RECEPTORS INCORPORATING THE SAME” (University of Southern California, priority 2020, published 2023).
